System: MS2 coat protein
Experiment: apparent KD of MS2 coat protein; designed switch direction (-1 OFF switch, 1 ON switch): -1; higher = weaker reporter binding
How it was run: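 Normalised cluster fluorescence was curve-fitted, and each design's median over clusters is its apparent KD. Before this, SNAP-549-labelled MS2 coat protein was titrated from 0.7 or 1.5 nM, doubling to 3 µM, over RNA switches transcribed on Illumina chips by stalled E. coli RNA polymerase. Titrations had no input, 200 uM small-molecule ligand, or an oligonucleotide input, and steps lasted 0.8–1.5 h (lowest) to 10–20 min (highest).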

[1] = Eterna round: R95, input ligand: FMN 200 uM
[2] = Eterna round: R95, input ligand: microRNA oligo, concentration not stated
[3] = Eterna round: R95, input ligand: none
[4] = input ligand: microRNA oligo, concentration not stated

Sequence	apparent KD of MS2 coat protein [1] [nM]	apparent KD of MS2 coat protein [2] [nM]	apparent KD of MS2 coat protein [3] [nM]	apparent KD of MS2 coat protein [4] [nM]	apparent KD of MS2 coat protein (input ligand: FMN 200 uM) [nM]	apparent KD of MS2 coat protein (input ligand: none) [nM]
GACCGGACGUGGUCUGGUAACAUGAGGAUCACCCAUGUAGGUCUAAGAACAAGCCUUUUGCACGCUCGUCUUAUAUU [JR_SV3TOV1_Sub061] (puzzle: Sensor v3, turn-off variant 1)	64.4	56.5	88.2			
GGUACUCAAAGAGUACCAAUACGAACAUGAGGAUCACCCAUGUAGGAUAUGCUACUCAAAGAGUAGCAGAAGGAUAUGAUGUAU [Far Half Aptamer v17] (Eterna round: R96, puzzle: Exclusion NG 3)				27.6		
AGUGGGCGCGUAGGAUAUGAGGAUCACCCAUAGAAGGAUAUCGAAAGAGAAGGUCUGAGGAUUACCCAGAAGGACGGGUUUGUA [pwkr exNG2 2xF5 2xFMN.15] (Eterna round: R96, puzzle: Exclusion NG 2)				278	925	232
GUGCUACAUGAGGAUCACCCAUGUCAGGAUAUGCGAAUUUCAUCAAAAGAUGAAAUUUGCAGAAGGGACAACAC [Omei Ex1 A18] (Eterna round: R97, puzzle: Exclusion 1)					88.2	38.5
AAAAAACAAGGAUAUACGAAGGAGGAUUAUCUUAAUUUUUGACAUGAGGAUCACCCAUGUAGAAGGUGUUAAAA [JR_Exclusion2_Sub009] (puzzle: Exclusion 2)	83.5	38.2	48.4			
GGUGCGUAUGUGAGGAUAUGCUGGUCCUUGGCUCGGCAGAAGGCACAUGAGGAUCACCCAUGUGGUGUCGUACU [salish99_Bmod_ex4_068] (puzzle: Brourd's mod of Exclusion 4)		96.8				
CCUGCACAUGAGGAUCACCCAUGUCAGGAUAUCUCGCCGCGAAGAGCAACACGGUAUUAGAGAAGGGACACGGG [Bimavees] (puzzle: Exclusion 1)		24.5				
GAAUGAGAGCAGGAUAUCUUAAAAAUGUAUCAAAGAGAAGGGCUCACAUGAGGAUCACCCAUGUGGUCCUAGAU [jl-ex6-4.67 jandersonlee mod] (Eterna round: R97, puzzle: Exclusion 6)					152	22.5
GAUUGACAUGAGGAUCACCCAUGUGAGGAUAUCGGCUGGUACGUGUUGGCUUGCCUCUCGAGAAGGCGCAUAGG [Exclusion 1 V55] (puzzle: Exclusion 1)	140	38.5	63.1			
GGGUGACAUGAGGAUCACCCAUGUCAGGAUAUGGGCCCGGGCCCGAAAGGGCCCGGGCCCAGAAGGGACUGCCC [-52, -51 kcal, 22%A] (Eterna round: R97, puzzle: Exclusion 1)					151	46.5
GCAGGUUAAGUCAGGAUAUACCUAUGGAUACAUAGGUAGAAGGGACAUGAGGAUCACCCAUGUUUCUCAUCUGC [Mod of Eli 2 - Jieux - Brourd's mod of Exclusion 4] (Eterna round: R97, puzzle: Brourd's mod of Exclusion 4)					61.5	21.7
GCUUGGCGAGGAUAUACAUGAGGAUCACCCAUGUGAGAGAAUAAAGUGAGGAAGAAAAGUAGAAGGCGCUGAGG [Mat - Exclusion 3 - Mod of Salish D58] (Eterna round: R96, puzzle: Exclusion 3)				45	181	54.5
UCACGGGACUGAGGAUAUACAUGAACCAUUUUUGUAGAAGGCAGAAUGUUAGAUCAUACACUAAACAUGAGGAUCACCCAUGUU [JR_ExcNG1_Sub025] (Eterna round: R96, puzzle: Exclusion NG 1)				18.8	15.1	19.7
AGACGAUCGUAGGAUAUCGGAAGGUCACUGGACUGAGAAGGACGAACAUGAGGAUCACCCAUGUGAUCUCUGGU [Eternabot (L2) Solution 43] (Eterna round: R97, puzzle: Exclusion 6)					779	734
UACAUGAGGAUCACCCAUGUUUUGUCGUGUAUGGUAUUUAUCUAGGAUAUCAAGUUAUUUAUUUAUGAGAAGGAGAAUAUUAAU [JMF's solution 10] (Eterna round: R96, puzzle: Exclusion NG 3)				30.7	40	37.3
ACCCGCACAAGCACCAGAGACAUGAGGAUCACCCAUGUAUAGUCGCACUAGGGUCUCUCUAGUCUAGCCGUUCGUCA [Eternabot (Original) Solution 44] (Eterna round: R97, puzzle: Sensor, turn-off variant 1)					90.4	213
GAAAAGGUAGGAUAUACGAAAAAAAAGGGUAGAAAAAAAACACAUGAGGAUCACCCAUGUAGAAGGACCAAAAG [salish99_ex2_r3_015] (puzzle: Exclusion 2)	57.8	28.7	27.2			

Sequence	apparent KD of MS2 coat protein [1] [nM]	apparent KD of MS2 coat protein [2] [nM]	apparent KD of MS2 coat protein [3] [nM]	apparent KD of MS2 coat protein [4] [nM]	apparent KD of MS2 coat protein (input ligand: FMN 200 uM) [nM]	apparent KD of MS2 coat protein (input ligand: none) [nM]
GUCAUCAAACAUGGGUGUAACAUGAGGAUCACCCAUGUUAUCAAGUUUUUUGCUCGUCUUAUAAUAAGUUUGAUGAC [Antenna 13 - Jieux - Sensor, turn-off variant 1] (Eterna round: R97, puzzle: Sensor, turn-off variant 1)					87.5	97.6
ACGUAUAGAGGAUAUAGUGAAUAUUACAUGAGGAUCACCCAUGUUCUUCAAAGCAUAUUCCUAGAAGGCUAAUGAA [EX-5 Malc#12] (puzzle: Exclusion 5)	113	44.4	56.4			
CCGCGUGUCGGACUGGGUUACAUGAGGAUCACCCAUGUUCGGUAAACUAAGCGUUUGCUCGUCUAAACCAUUCUCGA [Eternabot (Original) Solution 24] (Eterna round: R97, puzzle: Sensor, turn-off variant 1)					175	205
AUAUACAAGCAAAGAUCCUACAUGAGGAUCACCCAUGUGUUCGUCUUAUAAAGUACUAUCACGAAAGUGAUAGUACA [Mat - Sensor v3 - turn-off var 1 - Eli Mod - D80] (puzzle: Sensor v3, turn-off variant 1)	161	6.99	87.8			
ACACCGCAAGGAUAUACUUGCGGUGGUGUUCGAAGCUUUCUACUUGAGGAUCACCCAAGUAGAAGGUGCGGUGU [jl-ex2.4.73 ViennaUCT mod] (Eterna round: R97, puzzle: Exclusion 2)					12.8	12.3
AUCAAGGGAGGAUAUACAGUGAACAGUACUAGUCAGGCGGCACAUGAGGAUCACCCAUGUAGAAGGCCCAUGAU [Eternabot (L1) Solution 70] (Eterna round: R97, puzzle: Exclusion 2)					80	24.8
GGUUGGCGAGGAUAUACAUGAGGAUCACCCAUGUGAGAGAAAACAGUGAGGAAGAAAAGUAGAAGGCGCUGACG [salish99_ex3_r3_024] (puzzle: Exclusion 3)	466	52.6	48			
UUCACAUGGACAUAAGAUCACAUGAGGAUCACCCAUGUGAAUAACAAGCUUUUUGUUCGUCUUAUGUCCAAUAAUAA [Stov1/14-B1] (Eterna round: R97, puzzle: Sensor, turn-off variant 1)					12.3	12.6
AUAAUUAAUGCAGGAUAUCAGCACGUUUAGUGCUGAGAAGGGCACAUGAGGAUCACCCAUGUGAUCAAUUAAUAUUAAUAUUAU [ENG1/11-D2] (Eterna round: R96, puzzle: Exclusion NG 1)				51.1	269	65
GAAAAGGUAGGAUAUACGAAAAAAUAGGGUAGAAAAAAAACACAUGAGGAUCACCCAUGUAGAAGGACCAAAAG [salish99_ex2_r3_081] (puzzle: Exclusion 2)	47.6	33.7	27.5			
UCAGGCGAUGUCAGGAUAUCGGCUGCCCAAUUGGCUGAGAAGGGACAUGAGGAUCACCCAUGUUAGAUCCAGCC [BmEX4 A.25] (Eterna round: R97, puzzle: Brourd's mod of Exclusion 4)					30.2	16.9
ACAGUUCUGCAAGGAUAUCGUCCUAGUUUGUUUCGAGAAGGUGCUUUUGUUUUUUCCUUUUGUUUACAUGAGGAUCACCCAUGU [JR_ExcNG1_Sub051] (Eterna round: R96, puzzle: Exclusion NG 1)				16.6	15.6	18.9
GUCUCGUGAGGAUAUGACGCUACUUUUUUGUUUUAGUAGAGUCAGAAGGCACAUGAGGAUCACCCAUGUGAUUC [Ex4 - 3 - 4] (puzzle: Exclusion 4)		56				
CGCGAACAUGAGGAUCACCCAUGUGAGGAUAUCAUGCUUCGUAGUAAACUACGAAGUGUGAGAAGGCACAUGCG [Omei Ex1 D5] (Eterna round: R97, puzzle: Exclusion 1)					297	164
GAUGAGGUAGGAUAUACGAGAAGAUAGGGUAGAUAGAUAACACAUGAGGAUCACCCAUGUAGAAGGACCAGUAG [Mat - Exclusion 2 - Mod of my Tesla design - D72] (puzzle: Exclusion 2)		32.5				
CCGAAUAUGCAGGAUAUCGUAUCGGAAACGAUACGAGAAGGGUAAACAUGAGGAUCACCCAUGUUCCUUAACGG [Fiskers Ex 6 - 18] (puzzle: Exclusion 6)		17.7				
